Residue numbers refer to the chain shown, from its start. Names may count otherwise.
Assays:
[1] = target: T1, epithelial cell adhesion molecule (EpCAM) on EpCAM-expressing MCF-7 cells (human, UniProt P16422 24-314); assay: flow cytometry titration on EpCAM-expressing MCF-7 cells, anti-MYC detection; apparent (multivalent) Kd
T1 construct: whole, on cells; also called cellular EpCAM; EpCAM+ MCF-7 cells
T1 sequence (looked up): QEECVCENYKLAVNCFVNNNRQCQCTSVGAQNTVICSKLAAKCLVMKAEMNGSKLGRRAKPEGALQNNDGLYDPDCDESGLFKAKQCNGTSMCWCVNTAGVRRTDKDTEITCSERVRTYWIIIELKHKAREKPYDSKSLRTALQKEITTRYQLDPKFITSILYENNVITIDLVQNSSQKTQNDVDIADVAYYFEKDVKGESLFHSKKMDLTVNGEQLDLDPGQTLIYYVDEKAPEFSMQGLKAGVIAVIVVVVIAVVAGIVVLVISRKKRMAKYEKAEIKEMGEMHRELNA
Protocol: The apparent affinity and selectivity of the Fn3 and mSA/Fn3 CSANs was determined by flow cytometry, as previously described (Stern, et al., ACS Combinatorial Science 2017, 19 (5), 315-323). Briefly, EpCAM-expressing MCF-7 cells and EpCAM-negative U-87 MG cells were cultured to approximately 80% confluency, detached, and counted, as described above. Aliquots of 5×10⁴ cells were washed with PBSA (PBS with 0.1% w/v bovine serum albumin) and labeled with varying concentrations of Fn3 or mSA/Fn3 CSANs for ≥90 min at 4° C. Cells were then pelleted (500 g, 5 min, 4° C.) and resuspended in 50 μL anti-MYC (clone 9E10) Alexa Fluor 647 conjugate (Thermo Fisher Scientific, Cat: MA1-980-A647; 5 μg/mL in PBSA). After incubating at 4° C. for ≥30 min in the dark, cells were again pelleted and washed thrice with 1 mL cold PBSA before the fluorescence was analyzed on an LSR II flow cytometer (BD Biosciences).

[2] = target: T1, epithelial cell adhesion molecule …; assay: flow cytometry titration of unmodified parent ligand on MCF-7 cells
[3] = target: T1, epithelial cell adhesion molecule …; assay: flow cytometry titration of biotinylated ligand on EpCAM+ MCF-7 cells
[4] = target: T1, epithelial cell adhesion molecule …; assay: flow cytometry, multiple affinity titrations on EpCAM+ MCF-7 cells
[5] = target: T1, epithelial cell adhesion molecule …; assay: flow cytometry titration of soluble clone on MCF-7 cells
[6] = target: T1, epithelial cell adhesion molecule …; assay: flow cytometry titration on EpCAM+ MCF-7 cells
[7] = target: T1, epithelial cell adhesion molecule …; assay: flow cytometry on EpCAM+ MCF-7 cells

B1: Fn3 CSANs (DHFR^2-Fn3 fusion proteins with clone C5, oligomerized with bisMTX) (designed binder)
chain: MGEQKLISEEDLGGSGGGSGGGISLIAALAVDRVIGMENAMPWNLPADLAWFKRNTLNKPVIMGRHTWESIGRPLPGRKNIILSSQPGTDDRVTWVKSVDEAIAAAGDVPEIMVIGGGRVYEQFLPKAQKLYLTHIDAEVEGDTHFPDYEPDDWESVFSEFHDADAQNSHSYSFEILERRGGISLIAALAVDRVIGMENAMPWNLPADLAWFKRNTLNKPVIMGRHTWESIGRPLPGRKNIILSSQPGTDDRVTWVKSVDEAIAAAGDVPEIMVIGGGRVYEQFLPKAQKLYLTHIDAEVEGDTHFPDYEPDDWESVFSEFHDADAQNSHSYSFEILERRGELGGGGSGGGGSGGGGSASSSDSPRNLEVTNATPNSLTISWDNSNYASYYRITYGETGGNSPSQELTVPGSTYNATISGLKPGQDYIITVYAVTYRDNYSYSNLISINYRSEIDKPSQGSHHHHHH
notes: Multivalent nanoring; also called EpCAM-targeted Fn3 CSANs; monospecific Fn3 CSANs
Which Kd [1] does the source give for B1 here?
Its Kd is 0.021 µM.

B2: bispecific mSA/Fn3 CSANs (co-assembled mSA-DHFR^2 and DHFR^2-Fn3 subunits) (designed binder)
chain 1: B1 chain
chain 2: MAEAGITGTWYNQSGSTFTVTAGADGNLTGQYENRAQGTGCQNSPYTLTGRYNGTKLEWRVEWNNSTENCHSRTEWRGQYQGGAEARINTQWNLTYEGGSGPATEQGQDTFTKVKELGGSGGGSGGGSGGMISLIAALAVDRVIGMENAMPWNLPADLAWFKRNTLNKPVIMGRHTWESIGRPLPGRKNIILSSQPGTDDRVTWVKSVDEAIAAAGDVPEIMVIGGGRVYEQFLPKAQKLYLTHIDAEVEGDTHFPDYEPDDWESVFSEFHDADAQNSHSYSFEILERRGMISLIAALAVDRVIGMENAMPWNLPADLAWFKRNTLNKPVIMGRHTWESIGRPLPGRKNIILSSQPGTDDRVTWVKSVDEAIAAAGDVPEIMVIGGGRVYEQFLPKAQKLYLTHIDAEVEGDTHFPDYEPDDWESVFSEFHDADAQNSHSYSFEILERRGGSGGGSGGGSGGDYKDDDDK
notes: Stochastic mixture of the two subunits oligomerized with bisMTX; also called mSA/Fn3 bispecific CSANs
Which Kd [1] does the source give for B2 here?
The Kd was 0.024 µM.

B3: EpCAM-binding fibronectin clone C8 (parent ligand) (designed binder)
chain: SSDSPRNLEVTNATPNSLTISWDYPNSASYYRITYSETGGNSPSQEFTVPGNTYNATISGLKPGQDYIITVYAVTYRDNYSYSNLISINYRTEIDKPSQHHHHHH
notes: also called C08
With B3 as the binder, how does the Kd [2] read?
Its Kd is 0.011 µM.

B4: non-specifically biotinylated fibronectin clone C8 (designed binder)
chain: B3 chain
modifications: non-specific biotinylation of primary amines (N-terminus, lysines) with EZ-Link Sulfo-NHS-Biotin
notes: also called biotin-C08; biotin-C8
For B4, which Kd [3] is on record?
The Kd was 0.0057 µM.

B5: NODAGA-Fn-C5 (Fn_C5_G65C conjugated to maleimide-NODAGA) (designed binder)
chain: B3 chain with Y24N, P25S, S27Y, S36G, F47L, N52S, G64C, T92S
modifications: maleimide-NODAGA on the engineered cysteine (G65C, position as in SEQ ID NO: 1)
notes: Single NODAGA per domain by MALDI-MS; also called Fn 3.4.5 G65C NODAGA conjugate
B5 was tested. Which Kd [4] did it give?
The Kd was 0.014 µM.

B6: EpCAM-binding fibronectin clone C10 (parent ligand) (designed binder)
chain: B3 chain with Y24D, N26D, S27F, S36G, N41S, N55S, Q65R, Y67H, I68T, L85P
Which Kd [2] does the source give for B6 here?
The Kd was 0.025 µM.

B7: non-specifically biotinylated fibronectin clone B22 (designed binder)
chain: B3 chain with Y24D, P25Y, N26T, S36G, I58V, K62R, L85P
modifications: non-specific biotinylation of primary amines (N-terminus, lysines) with EZ-Link Sulfo-NHS-Biotin
notes: also called biotin-B22
With B7 as the binder, how does the Kd [3] read?
Its Kd is 1.7 µM.

B8: non-specifically biotinylated fibronectin clone C10 (designed binder)
chain: B3 chain with Y24D, N26D, S27F, S36G, N41S, N55S, Q65R, Y67H, I68T, L85P
modifications: non-specific biotinylation of primary amines (N-terminus, lysines) with EZ-Link Sulfo-NHS-Biotin
notes: also called biotin-C10
With B8 as the binder, how does the Kd [3] read?
Its Kd is 0.0097 µM.

B9: EpCAM-binding fibronectin clone B22 (parent ligand) (designed binder)
chain: B3 chain with Y24D, P25Y, N26T, S36G, I58V, K62R, L85P
B9 was tested. Which Kd [2] did it give?
The Kd was 1.1 µM.

B10: EpCAM-binding fibronectin (Fn3) clone C5 (designed binder)
chain: B3 chain with Y24N, P25S, S27Y, S36G, F47L, N52S, T92S
notes: Soluble domain made in E. coli; also called Fn 3.4.5; Fn C5
With B10 as the binder, how does the Kd [5] read?
The Kd was 0.017 µM.

B11: NODAGA-Fn-NT (Fn_NT_G65C non-targeted control conjugated to maleimide-NODAGA) (designed binder)
chain: SSDSPRNLEVTNATPNSLTISWDAPAVTVRYYRITYGETGGNSPSQEFTVPGSKSTATISGLKPCQDYTITVYAVTGRDGSPASSKPISINYRTEIDKPSQHHHHHH
modifications: maleimide-NODAGA on the engineered cysteine (G65C)
notes: Non-targeted scaffold with wild-type loops, G65C and RGD changed to RDG
Does B11 bind [6]?
Result: no binding

B12: mixed, reduced valency CSANs of 1DD-FnC5-v4 and 1DD-FnNT-v4 subunits (designed binder)
chain 1: MGEQKLISEEDLGGSGGGSGGGISLIAALAVDRVIGMENAMPWNLPADLAWFKRNTLNKPVIMGRHTWESIGRPLPGRKNIILSSQPGTDDRVTWVKSVDEAIAAAGDVPEIMVIGGGRVYEQFLPKAQKLYLTHIDAEVEGDTHFPDYEPDDWESVFSEFHDADAQNSHSYSFEILERRGGISLIAALAVDRVIGMENAMPWNLPADLAWFKRNTLNKPVIMGRHTWESIGRPLPGRKNIILSSQPGTDDRVTWVKSVDEAIAAAGDVPEIMVIGGGRVYEQFLPKAQKLYLTHIDAEVEGDTHFPDYEPDDWESVFSEFHDADAQNSHSYSFEILERRGELGGSGGGGSGGGGSGGGGSGGGGSGGGGSGGGGSGGGGSGGGGSGGASSSDSPRNLEVTNATPNSLTISWDNSNYASYYRITYGETGGNSPSQELTVPGSTYNATISGLKPGQDYIITVYAVTYRDNYSYSNLISINYRSEIDKPSQGSHHHHHH
chain 2: MGEQKLISEEDLGGSGGGSGGGISLIAALAVDRVIGMENAMPWNLPADLAWFKRNTLNKPVIMGRHTWESIGRPLPGRKNIILSSQPGTDDRVTWVKSVDEAIAAAGDVPEIMVIGGGRVYEQFLPKAQKLYLTHIDAEVEGDTHFPDYEPDDWESVFSEFHDADAQNSHSYSFEILERRGGISLIAALAVDRVIGMENAMPWNLPADLAWFKRNTLNKPVIMGRHTWESIGRPLPGRKNIILSSQPGTDDRVTWVKSVDEAIAAAGDVPEIMVIGGGRVYEQFLPKAQKLYLTHIDAEVEGDTHFPDYEPDDWESVFSEFHDADAQNSHSYSFEILERRGELGGSGGGGSGGGGSGGGGSGGGGSGGGGSGGGGSGGGGSGGGGSGGASSSDSPRNLEVTNATPNSLTISWDAPAVTVRYYRITYGETGGNSPSQEFTVPGSKSTATISGLKPGQDYTITVYAVTGRDGSPASSKPISINYRTEIDKPSQGSHHHHHH
notes: Nanoring co-assembled with the chemical dimerizer bis-methotrexate
Does B12 bind [6]?
Result: binds

B13: CSANs displaying only the non-binding control domain (1DD-FnNT-v4) (designed binder)
chain: B12 chain 2
notes: Nanoring oligomerized with bis-methotrexate; control; also called 1DD-FnNT-v4 CSANs
Does B13 bind [7]?
Result: no binding

B14: mixed, reduced valency CSANs of 1DD-FnB22-v4 and 1DD-FnNT-v4 subunits (designed binder)
chain 1: B12 chain 1 with N414D, S415Y, N416T, Y417S, L437F, S442N, I448V, K452R, L475P, S482T
chain 2: B12 chain 2
notes: as for B12
Does B14 bind [6]?
Result: binds

Source: patent US20180251524A1 (REGENTS OF THE UNIVERSITY OF MINNESOTA, published 2018)
